The record followed here is patent US20100081620A1 (BIOZYME, published 2010).

The target in experiment [1] is T1, Human ADAM10 protease containing the catalytic/disintegrin domains (human, UniProt O14672 214-672, limits assumed).
T1 construct: domain: catalytic/disintegrin domains; Bought; also called ADAM 10 (human) Cat/Dis; ADAM10 catalytic/disintegrin construct
T1 sequence (looked up): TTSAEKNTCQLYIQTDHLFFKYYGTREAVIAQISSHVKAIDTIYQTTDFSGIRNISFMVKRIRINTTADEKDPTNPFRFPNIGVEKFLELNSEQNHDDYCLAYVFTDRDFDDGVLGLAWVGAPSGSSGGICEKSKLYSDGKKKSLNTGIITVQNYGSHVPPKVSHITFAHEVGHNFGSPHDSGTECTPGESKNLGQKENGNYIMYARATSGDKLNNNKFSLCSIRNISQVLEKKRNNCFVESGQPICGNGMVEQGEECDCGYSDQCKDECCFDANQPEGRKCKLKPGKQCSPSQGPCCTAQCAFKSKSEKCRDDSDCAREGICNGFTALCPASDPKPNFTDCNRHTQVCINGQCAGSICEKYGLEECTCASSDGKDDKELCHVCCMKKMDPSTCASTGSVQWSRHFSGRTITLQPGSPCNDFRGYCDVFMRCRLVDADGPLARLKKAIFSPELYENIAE
The experiment in a line: enzyme inhibition, fluorescent peptide substrate; fit to a pure competitive model. As for the experimental part: ADAM 10 protein was diluted 1:100 in buffer 25 mM Tris pH 8, 0.0006% Brij-35 and then 10 μl was added to 88 μl of substrate (20-100 μM), Dabcyl-LAQAHomoPheRSC(Fluorescein)-NH₂ with excitation 485 nm and emission 530 nm. Prodomain, 2 μl, in 25 mM Tris, pH 8, 100 mM NaCl, 10% glycerol, 0.1% mercaptoethanol, and 50 μM CaCl₂ was added to substrate before addition of enzyme. The final concentration of prodomain ranged from 17-170 nM. The fluorescence vs time was plotted, and slopes were taken from straight line fits of initial velocities. The reciprocal of the velocities was plotted vs the reciprocal of substrate squared since the normal Lineweaver Burke plot gave curved lines. The initial velocities vs substrate concentrations were fit as a family of curves to several allosteric models. The data fit best to a pure competitive model as described in the following equation where binding of inhibitor prevents substrate from binding to both sites: […]

In experiment [2] the target is T2, ADAM 8 catalytic domain (mouse) (mouse, UniProt Q05910 196-395, limits assumed).
T2 construct: domain: catalytic domain; also called ADAM 8 (mouse); ADAM 8 (mouse) Cat
T2 sequence (looked up): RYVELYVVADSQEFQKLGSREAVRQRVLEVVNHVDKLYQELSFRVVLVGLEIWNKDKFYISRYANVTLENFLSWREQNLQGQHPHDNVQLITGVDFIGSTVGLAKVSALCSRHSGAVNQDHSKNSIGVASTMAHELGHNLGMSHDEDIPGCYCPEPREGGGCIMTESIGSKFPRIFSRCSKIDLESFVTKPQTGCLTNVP
Put plainly: enzyme inhibition, fluorescamine assay with Dnp peptide substrate. As for the experimental part: Inhibition assays with ADAM 8. The ADAM 8 catalytic domain was expressed and purified from E. coli as described (22). A substrate based on the L-selectin cleavage site, Dnp-INorIeu[…]-NH₂ (SEQ ID NO 20), was used to monitor enzyme activity with a fluorescamine assay. From a concentrated 50 mM solution in DMSO, the substrate was diluted 1:500 in 25 mM HEPES, pH 8.0, 0.0006% Brij-35. To 100 μl of diluted substrate was added either 5 μl of buffer (Tris, pH 8.0, 150 mM KCl) or 5 μl of ADAM10 prodomain (1-10 μM). Zero time points were taken by diluting 12.5 μl of the reaction mixture into 100 μl of fluorescamine buffer (50 mM HEPES, pH 8.0, 0.2 M NaCl, 0.01 M CaCl₂, 0.01% Brij-35) in a 96-well black-coated plate. Before measuring fluorescence, 3 μl of a 1% solution of fluorescamine in DMSO was added to each well. The plate was allowed to incubate for 10 min in the dark before measuring fluorescence (excitation wavelength at 390 nm, emission wavelength at 485 nm). For assays with TACE and ADAM8 prodomains, a fluorescent substrate was used to monitor activity at concentrations of prodomains ranging from 1-4.7 μM.
Calculation of inhibition constants. The amount of activity was calculated by subtracting the ADAM 10 prodomain control from the ADAM 10 prodomain with enzyme. […]

Experiment [3] deals with T3, human ADAM 9 catalytic/disintegrin domains (human, UniProt Q13443 206-697, limits assumed).
T3 construct: domain: catalytic/disintegrin domains; Bought; also called ADAM 9 (human)
T3 sequence (looked up): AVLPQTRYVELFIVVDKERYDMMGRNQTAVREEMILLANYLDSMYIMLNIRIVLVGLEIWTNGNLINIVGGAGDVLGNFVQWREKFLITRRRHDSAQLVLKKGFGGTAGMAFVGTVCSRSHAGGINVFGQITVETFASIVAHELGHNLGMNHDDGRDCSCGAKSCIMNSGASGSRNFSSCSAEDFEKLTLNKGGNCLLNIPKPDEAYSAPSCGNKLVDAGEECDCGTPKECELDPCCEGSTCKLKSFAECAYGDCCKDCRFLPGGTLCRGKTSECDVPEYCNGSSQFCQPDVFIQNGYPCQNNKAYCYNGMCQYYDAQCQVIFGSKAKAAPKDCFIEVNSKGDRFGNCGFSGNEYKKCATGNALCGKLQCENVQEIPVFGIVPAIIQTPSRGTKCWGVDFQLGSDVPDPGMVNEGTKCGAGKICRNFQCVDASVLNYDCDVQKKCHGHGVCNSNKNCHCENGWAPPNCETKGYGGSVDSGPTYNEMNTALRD
The experiment in a line: enzyme inhibition, fluorescent peptide substrate. Here is the method: (§1) Inhibition assays with TACE and ADAM 10. Activity of TACE catalytic/disintegrin, TACE catalytic, or ADAM10 catalytic/disintegrin constructs was monitored at 3 minute intervals using the fluorescent substrate, Dabcyl-LAQAHomoPheRSC(Fluorescein)-NH₂ (SEQ ID NO 17) with excitation 485 nm and emission 530 nm. The substrate was diluted from a 10 mM stock in DMSO to 10 μM in assay buffer containing 20 mM Tris, pH 8.0, and 0.0006% Brij-35. Reactions were run in a 96-well black-coated plate with either ADAM10 prodomain (10 nM-1.0 μM) alone or with enzyme. Concentrations of enzyme ranged from 0.5-2.0 nM for TACE and 5-15 nM for ADAM10. For assays with TACE and ADAM8 prodomain, the range of concentrations varied from 1-4.7 μM.
(§2) Inhibition assays with MMPs. The fluorescent substrate Dabcyl-[…](Fluorescein)-NH₂ (SEQ ID NO 18) (10 μM) in assay buffer containing 50 mM Tris, pH 7.5, 150 mM NaCl, 2 mM CaCl₂, 5 μM ZnSO₄, and 0.01% Brij-35 was used to monitor enzyme activities. MMPs 1, 2, 3, 9, 13, and 14 (0.1-20 nM) were incubated with substrate in the absence or presence of prodomain (3-30 μM). Fluorescence intensities were measured every 3-5 minutes at an emission wavelength of 530 nm (excitation 485 nm).
(§3) Inhibition assays with ADAM 9. The fluorescent substrate, Dabcyl-PchaGC(Me)HAK(Fam)-NH₂ (SEQ ID NO 19) (10 μM), in a buffer containing 25 mM Tris, pH 8.0, 0.0006% Brij-35, was used to measure human ADAM 9 catalytic/disintegrin domains activity. The ADAM 9 was provided as a 0.1 μg/μl stock solution, from which 3 μl was added to start the reaction in the absence or presence of ADAM10 prodomain (78-5000 nM). Fluorescence intensities were measured every 10-20 minutes at excitation and emission wavelengths of 485 and 530 nm respectively.

For experiment [4], the target named is T4, TACE catalytic domain (human) (human, UniProt P78536 215-477, limits assumed).
T4 construct: domain: catalytic domain; also called TACE (human) Cat
T4 sequence (P78536 215-477 limits assumed): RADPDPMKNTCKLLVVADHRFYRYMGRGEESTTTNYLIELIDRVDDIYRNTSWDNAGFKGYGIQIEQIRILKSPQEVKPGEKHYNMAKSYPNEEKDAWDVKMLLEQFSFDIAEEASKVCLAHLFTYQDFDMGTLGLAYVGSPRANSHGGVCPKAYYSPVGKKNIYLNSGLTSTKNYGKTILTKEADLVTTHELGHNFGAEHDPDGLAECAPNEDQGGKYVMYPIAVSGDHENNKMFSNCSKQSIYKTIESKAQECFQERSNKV
Put plainly: enzyme inhibition, fluorescent peptide substrate. Here is the method: as §1, §2, §3

For experiment [5], the target named is T5, Human TACE protease containing the catalytic/disintegrin domains (human, UniProt P78536 215-671, limits assumed).
T5 construct: domain: catalytic/disintegrin domains; Bought; also called TACE (human) Cat/Dis; TACE catalytic/disintegrin
T5 sequence (P78536 215-671 limits assumed): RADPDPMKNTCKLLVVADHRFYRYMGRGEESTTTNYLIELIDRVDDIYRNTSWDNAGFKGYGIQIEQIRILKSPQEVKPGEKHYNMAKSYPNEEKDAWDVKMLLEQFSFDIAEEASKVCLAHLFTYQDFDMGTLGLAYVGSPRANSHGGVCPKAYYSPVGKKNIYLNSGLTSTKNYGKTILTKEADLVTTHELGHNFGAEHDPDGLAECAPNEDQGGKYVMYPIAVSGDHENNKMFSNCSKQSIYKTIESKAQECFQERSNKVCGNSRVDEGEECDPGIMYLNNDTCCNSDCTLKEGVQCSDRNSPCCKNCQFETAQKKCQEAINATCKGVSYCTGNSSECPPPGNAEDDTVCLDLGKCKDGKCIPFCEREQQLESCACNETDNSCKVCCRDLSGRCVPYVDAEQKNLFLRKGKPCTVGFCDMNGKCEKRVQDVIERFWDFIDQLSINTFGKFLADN
The experiment in a line: enzyme inhibition, fluorescent peptide substrate. As for the experimental part: as §1, §2, §3

For experiment [6], the target named is T3, human ADAM 9 catalytic/disintegrin …. Put plainly: enzyme inhibition, fluorescent peptide substrate. Here is the method: as §3
Calculation of inhibition constants. The amount of activity was calculated by subtracting the ADAM 10 prodomain control from the ADAM 10 prodomain with enzyme. All inhibition assays were performed at room temperature and the data fit to the following equation using Sigma Plot software: […]
This is another data set of the same source.

Experiment [7] addresses T6, MMP 1.
T6 construct: also called matrix metalloproteinase 1
The experiment in a line: enzyme inhibition, fluorescent peptide substrate. Here is the method: as §1, §2, §3

Experiment [8] deals with T7, MMP 14.
T7 construct: also called matrix metalloproteinase 14
Put plainly: enzyme inhibition, fluorescent peptide substrate. Here is the method: as §1, §2, §3

In experiment [9] the target is T8, MMP 9.
T8 construct: also called matrix metalloproteinase 9
T8 sequence (P14780 107-707): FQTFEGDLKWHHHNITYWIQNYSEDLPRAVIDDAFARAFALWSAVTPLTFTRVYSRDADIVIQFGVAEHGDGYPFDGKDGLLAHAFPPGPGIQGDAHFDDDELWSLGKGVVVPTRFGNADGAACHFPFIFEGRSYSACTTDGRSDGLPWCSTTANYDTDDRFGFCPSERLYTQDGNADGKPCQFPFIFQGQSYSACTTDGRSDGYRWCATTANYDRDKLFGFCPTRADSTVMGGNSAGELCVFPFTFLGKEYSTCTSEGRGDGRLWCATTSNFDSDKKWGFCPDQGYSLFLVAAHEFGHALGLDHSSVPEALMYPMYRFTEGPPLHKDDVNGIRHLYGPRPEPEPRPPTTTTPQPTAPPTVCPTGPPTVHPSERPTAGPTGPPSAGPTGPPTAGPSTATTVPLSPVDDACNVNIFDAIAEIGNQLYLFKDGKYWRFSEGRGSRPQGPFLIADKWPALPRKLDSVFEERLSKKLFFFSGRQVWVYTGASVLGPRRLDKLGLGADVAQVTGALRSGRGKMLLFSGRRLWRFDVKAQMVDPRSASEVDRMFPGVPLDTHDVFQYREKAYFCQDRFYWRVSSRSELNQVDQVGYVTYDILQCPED
Put plainly: enzyme inhibition, fluorescent peptide substrate. As for the experimental part:
as §1, §2, §3

The target of experiment [10] is T9, MMP 3.
T9 construct: also called matrix metalloproteinase 3
T9 sequence (P08254 100-477): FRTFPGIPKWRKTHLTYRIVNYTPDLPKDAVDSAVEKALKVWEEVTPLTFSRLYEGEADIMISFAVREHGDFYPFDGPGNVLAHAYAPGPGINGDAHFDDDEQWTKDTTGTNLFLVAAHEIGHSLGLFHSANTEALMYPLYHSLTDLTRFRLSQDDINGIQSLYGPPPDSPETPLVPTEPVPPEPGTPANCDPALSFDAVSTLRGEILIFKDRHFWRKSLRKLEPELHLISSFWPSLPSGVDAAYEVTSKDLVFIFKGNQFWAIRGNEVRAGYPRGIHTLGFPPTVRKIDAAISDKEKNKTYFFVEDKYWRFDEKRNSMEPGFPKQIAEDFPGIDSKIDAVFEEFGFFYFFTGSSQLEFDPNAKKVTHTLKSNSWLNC
The experiment in a line: enzyme inhibition, fluorescent peptide substrate. Here is the method: as §1, §2, §3

Experiment [11] addresses T10, MMP 13.
T10 construct: also called matrix metalloproteinase 13
The experiment in a line: enzyme inhibition, fluorescent peptide substrate. Here is the method: as §1, §2, §3

For experiment [12], the target named is T11, MMP 2.
T11 construct: also called matrix metalloproteinase 2
T11 sequence (P08253 110-660): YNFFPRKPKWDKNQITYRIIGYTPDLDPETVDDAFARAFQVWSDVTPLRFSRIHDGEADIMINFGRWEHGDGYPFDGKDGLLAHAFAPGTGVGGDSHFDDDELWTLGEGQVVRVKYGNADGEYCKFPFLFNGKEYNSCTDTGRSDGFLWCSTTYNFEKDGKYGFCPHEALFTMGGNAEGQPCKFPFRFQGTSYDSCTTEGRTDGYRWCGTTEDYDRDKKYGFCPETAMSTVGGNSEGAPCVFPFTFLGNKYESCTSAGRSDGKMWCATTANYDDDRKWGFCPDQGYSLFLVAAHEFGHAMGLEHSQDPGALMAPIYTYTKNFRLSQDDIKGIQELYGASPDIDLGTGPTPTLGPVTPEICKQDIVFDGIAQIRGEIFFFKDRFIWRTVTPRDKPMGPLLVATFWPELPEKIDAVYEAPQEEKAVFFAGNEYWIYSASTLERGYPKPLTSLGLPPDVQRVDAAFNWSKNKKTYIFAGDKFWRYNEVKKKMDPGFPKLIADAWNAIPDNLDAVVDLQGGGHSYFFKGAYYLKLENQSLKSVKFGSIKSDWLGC
The experiment in a line: enzyme inhibition, fluorescent peptide substrate. As for the experimental part: as §1, §2, §3

The target in experiment [13] is T1, Human ADAM10 protease containing the …. The experiment in a line: enzyme inhibition, fluorescent peptide substrate. Here is the method: as §1, §2, §3

Read-outs that look alike come from different tables or passages of the source.

T6 sequence (P03956 100-469): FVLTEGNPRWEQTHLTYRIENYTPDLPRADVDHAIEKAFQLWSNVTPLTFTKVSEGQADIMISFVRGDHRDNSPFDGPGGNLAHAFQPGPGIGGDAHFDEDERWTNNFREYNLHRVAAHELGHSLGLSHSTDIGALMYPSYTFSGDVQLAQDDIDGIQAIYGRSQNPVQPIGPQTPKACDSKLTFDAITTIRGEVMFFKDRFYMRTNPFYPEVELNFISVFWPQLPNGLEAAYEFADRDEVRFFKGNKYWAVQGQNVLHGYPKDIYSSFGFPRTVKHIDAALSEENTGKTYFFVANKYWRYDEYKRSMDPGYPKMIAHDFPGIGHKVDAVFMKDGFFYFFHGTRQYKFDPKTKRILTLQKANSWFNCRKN

B1: wt ProADAM 10 23-213 (C-terminal His tag) (other)
chain: NPLNKYIRHYEGLSYNVDSLHQKHQRAKRAVSHEDQFLLLDFHAHGRQFNLRMKRDTSLFSDEFKVETSNKVPDYDTSHIYTGHIYGEEGSFSHGSVIDGRFEGFIKTRGGTFYIEPAERYIKDRILPFHSVIYHEDDINYPHKYGPQGGCADHSVFERMRKYQMTGVEEGARAHPEKHAASSGPELLRKKHHHHHH
notes: the wild type has Cys there
By Ki is commonly meant the equilibrium dissociation constant of an inhibitor or competing ligand from its target. Lower therefore signals a stronger hold on the target. For B1, the Ki in [1] was 48 nM; in experiment [2], greater than 10000 nM; in [3] it was greater than 1000 nM; in [4], greater than 11000 nM; in [5], greater than 10000 nM; in experiment [6] it was roughly 1000 nM.

B2: wt ProADAM 10 23-213 (N-terminal His tag) (other)
chain: NPLNKYIRHYEGLSYNVDSLHQKHQRAKRAVSHEDQFLLLDFHAHGRQFNLRMKRDTSLFSDEFKVETSNKVPDYDTSHIYTGHIYGEEGSFSHGSVIDGRFEGFIKTRGGTFYIEPAERYIKDRILPFHSVIYHEDDINYPHKYGPQGGCADHSVFERMRKYQMTGVEEGARAHPEKHAASSGPELLRKK
notes: Expressed in E. coli, purified on Ni-NTA and Superdex-75; the wild type has Cys there; not shown: N-terminal His tag and leader encoded by the pRSET vector (insert at BamHI/EcoRI)
As for B2, the Ki in experiment [7], in [8], in [9], in experiment [10], in experiment [11] and in experiment [12] was greater than 2000 nM each time. Besides, the values for the Ki in experiment [4], in experiment [13] and in experiment [5] were greater than 11000 nM, 75 nM and greater than 3000 nM, respectively.
